Test results taken from patent US20240141060A1 (Novartis, published 2024).
Where a chain is given by its changes, count along the chain named.

T1: Recombinant Human 5′-Nucleotidase/CD73 Protein, CF (R&D Systems Cat: 5795-EN) (human, UniProt P21589 27-547)
T1 construct: Bought protein; also called Human CD73-His; recombinant human CD73; not shown: His tag
T1 sequence (looked up): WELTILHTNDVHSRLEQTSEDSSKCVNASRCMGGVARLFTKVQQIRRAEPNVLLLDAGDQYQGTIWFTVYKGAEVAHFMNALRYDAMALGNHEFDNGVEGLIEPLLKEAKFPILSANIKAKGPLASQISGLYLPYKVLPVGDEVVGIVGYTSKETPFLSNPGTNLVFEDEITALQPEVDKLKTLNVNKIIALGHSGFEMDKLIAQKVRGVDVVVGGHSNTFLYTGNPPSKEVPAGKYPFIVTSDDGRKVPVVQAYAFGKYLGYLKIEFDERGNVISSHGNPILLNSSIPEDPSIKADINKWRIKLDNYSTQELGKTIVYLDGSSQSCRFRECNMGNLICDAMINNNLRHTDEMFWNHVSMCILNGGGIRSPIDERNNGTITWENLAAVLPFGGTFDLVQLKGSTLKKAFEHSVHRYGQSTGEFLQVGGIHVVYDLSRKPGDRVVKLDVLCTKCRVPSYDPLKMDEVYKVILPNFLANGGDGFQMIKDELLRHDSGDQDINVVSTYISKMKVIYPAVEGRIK

T2: Recombinant Mouse 5′-Nucleotidase/CD73 Protein, CF (R&D Systems Cat: 4488-EN) (mouse, UniProt Q61503 29-549, limits assumed)
T2 construct: Bought protein; also called Mouse CD73-His; recombinant mouse CD73; not shown: His tag
T2 sequence (looked up): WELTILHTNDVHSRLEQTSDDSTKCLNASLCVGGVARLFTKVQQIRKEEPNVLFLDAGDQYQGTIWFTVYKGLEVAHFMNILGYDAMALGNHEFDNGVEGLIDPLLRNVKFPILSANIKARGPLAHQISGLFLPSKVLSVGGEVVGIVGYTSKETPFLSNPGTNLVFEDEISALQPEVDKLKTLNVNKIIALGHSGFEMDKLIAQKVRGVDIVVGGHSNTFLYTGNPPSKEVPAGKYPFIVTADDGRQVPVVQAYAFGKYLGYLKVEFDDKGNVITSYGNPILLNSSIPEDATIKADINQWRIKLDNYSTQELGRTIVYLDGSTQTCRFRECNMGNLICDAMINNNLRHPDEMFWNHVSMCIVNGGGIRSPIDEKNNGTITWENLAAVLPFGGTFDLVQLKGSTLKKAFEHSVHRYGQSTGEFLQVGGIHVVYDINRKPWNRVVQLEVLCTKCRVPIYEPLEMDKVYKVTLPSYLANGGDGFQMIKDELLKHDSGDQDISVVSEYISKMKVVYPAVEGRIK

T3: Cynomolgus CD73/NT5E Protein (His Tag) (Sino Biological Cat: 90192-C08H-50) (cynomolgus monkey, UniProt A0A2K5V5U7 27-547)
T3 construct: treated as one protein; also called Cynomolgus CD73-His; recombinant cynomolgus monkey CD73; not shown: His tag
T3 sequence: T1 sequence (looked up) with M199T, T350A, V466I

B1: 356.C (antibody, V domains shown)
VH: QVQLQESGPGLVKPSETLSLTCTVSGGSIEGRYWSWIRQPPGKGLEWIGYIYGSGSTKYNPSLKSRVTISVDTSKNQFSLKLSSVTAADTAVYYCARESQESPYNNWFDPWGQGTLVTVSS
VL: DIQMTQSPSSVSASVGDRVTITCRASQGISSWLAWYQQKPGKAPKLLIYAASSLQSGVPSRFSGSGSGTDFTLTISSLQPEDFATYYCQQGNSFPRTFGGGTKVEIK
B2: 930.C (antibody, V domains shown)
VH: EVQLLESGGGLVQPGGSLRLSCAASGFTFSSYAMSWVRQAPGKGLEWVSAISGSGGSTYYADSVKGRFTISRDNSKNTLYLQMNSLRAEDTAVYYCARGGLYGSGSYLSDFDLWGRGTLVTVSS
VL: EIVLTQSPATLSVSPGERATLSCRASQSVGSNLAWYQQKPGQAPRLLIYGASTRATGIPARFSGSGSGTEFTLTISSLQSEDFAVYYCQQHNAFPYTFGGGTKVEIK
notes: also called 930 IgG1 format
B3: 379.C (antibody, V domains shown)
VH: EVQLLESGGGLVQPGGSLRLSCAASGFTFSRYAMSWVRQAPGKGLEWVSSISGTGGSTYYADSVKGRFTISRDNSKNTLYLQMNSLRAEDTAVYYCARGGLYGSGSYLSDFDLWGRGTLVTVSS
VL: B2 VL
notes: also called 379 IgG1 format
B4: 374.C (antibody, V domains shown)
VH: B3 VH with R31Y, Y32N
VL: B2 VL
B5: 377.C (antibody, V domains shown)
VH: B3 VH with S30K, R31S, S50A, T54S, G56S, S57Y
VL: B2 VL
notes: also called 377 IgG1 format
B6: 373.C (antibody, V domains shown)
VH: B3 VH with S30H, S50A, T54S, G56M, S57N
VL: B2 VL
B7: 376.C (antibody, V domains shown)
VH: B3 VH with S30R, R31S, S50A, S52T, T54S, S57L
VL: B2 VL
notes: also called 376 IgG1 format
B8: 930 (antibody, V domains shown)
VH: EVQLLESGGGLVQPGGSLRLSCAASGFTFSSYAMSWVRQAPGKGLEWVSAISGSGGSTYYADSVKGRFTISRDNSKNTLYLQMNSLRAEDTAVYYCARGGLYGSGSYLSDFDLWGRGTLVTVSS
VL: B2 VL
notes: also called parental antibody 930; Lineage 3 parent
B9: 376 (antibody, V domains shown)
VH: B3 VH with S30R, R31S, S50A, S52T, T54S, S57L
VL: B2 VL
notes: also called progeny antibody 376; Lineage 3 child
B10: 373 (antibody, V domains shown)
VH: B3 VH with S30H, S50A, T54S, G56M, S57N
VL: B2 VL
notes: also called Lineage 3 child
B11: 377 (antibody, V domains shown)
VH: B3 VH with S30K, R31S, S50A, T54S, G56S, S57Y
VL: B2 VL
notes: also called progeny antibody 377; Lineage 3 child
B12: 374 (antibody, V domains shown)
VH: B3 VH with R31Y, Y32N
VL: B2 VL
notes: also called Lineage 3 child
B13: 379 (antibody, V domains shown)
VH: B3 VH
VL: B2 VL
notes: also called progeny antibody 379; Lineage 3 child
B14: 358.C (antibody, V domains shown)
VH: B1 VH with E30S, S54T, K58N
VL: B1 VL
B15: 918.C (antibody, V domains shown)
VH: B1 VH with E30S, G31S, R32Y, G53S, K58N
VL: B1 VL

What follows are binders tested against T1, Recombinant Human 5′-Nucleotidase/CD73 … (assay: ForteBio Octet RED384 (BLI), whole IgG on AHQ sensors, 100 nM antigen, 1:1 model; * value approaching upper limit for Kd measurement).
Method: (§1) Briefly, ForteBio affinity measurements were performed by loading IgGs on-line onto AHQ sensors. Sensors were equilibrated off-line in assay buffer for 30 min and then monitored on-line for 60 seconds for baseline establishment. Sensors with loaded IgGs were exposed to 100 nM antigen for 3 minutes, and afterwards were transferred to assay buffer for 3 min for off-rate measurement. All kinetics were analyzed using the 1:1 binding model. Antigens used were: [0438] Human CD73-His: Recombinant Human 5′-Nucleotidase/CD73 Protein, CF from R&D Systems Cat: 5795-EN [0439] Mouse CD73-His: Recombinant Mouse 5′-Nucleotidase/CD73 Protein, CF from R&D Systems Cat: 4488-EN [0440] Cynomolgus CD73-His: Cynomolgus CD73/NT5E Protein (His Tag) from Sino Biological Cat: 90192-C08H-50
Work on B1 yielded a Kd of 0.243 nM.

Each binder was assayed against T2, Recombinant Mouse 5′-Nucleotidase/CD73 … (assay: ForteBio Octet RED384 (BLI), whole IgG on AHQ sensors, 1:1 model).
Method: as §1
B2: no binding (tested: 100 nM antigen). B3: no binding (tested: 100 nM antigen). B4: no binding (tested: 100 nM antigen). B5: no binding (tested: 100 nM antigen). B6: no binding (tested: 100 nM antigen). B7: no binding (tested: 100 nM antigen).

The binders below were run against T2, Recombinant Mouse 5′-Nucleotidase/CD73 … (assay: restated binding profile (Octet)).
B8: no binding. B9: no binding. B10: no binding. B11: no binding. B12: no binding. B13: no binding.

These binders were tested against T1, Recombinant Human 5′-Nucleotidase/CD73 … (assay: ForteBio Octet RED384 (BLI), whole IgG on AHQ sensors, 100 nM antigen, 1:1 model).
Method: as §1
B2 was tested, and the Kd was 1.83 nM. In the case of B3, the Kd is reported as 0.55 nM. B4 gave a Kd of 0.358 nM. B5 was tested, and the Kd was 0.572 nM. Work on B6 yielded a Kd of 0.621 nM. B7 gave a Kd of 0.301 nM. B14 gave a Kd of 0.317 nM. In the case of B15, the Kd is reported as 1.53 nM.

The binders below were run against T2, Recombinant Mouse 5′-Nucleotidase/CD73 … in the same assay as above.
Method: as §1
In the case of B14, the Kd is reported as 3.51 nM. B1 gave a Kd of 0.401 nM. B15 gave a Kd of 8.88 nM.

Each binder was assayed against T3, Cynomolgus CD73/NT5E Protein (His Tag) … in the same assay as above.
Method: as §1
In the case of B3, the Kd is reported as 1.62 nM. In the case of B4, the Kd is reported as 0.103 nM. Work on B5 yielded a Kd of 1.42 nM. B6 showed a Kd of 0.914 nM. For B14, the Kd was 0.814 nM. With B1 the Kd was 0.693 nM.
